# Assay results: patent US6617117B1, “MAP kinases: polypeptides, polynucleotides and uses thereof” (Medical Research Council, priority 1996, dated 2003)
# Columns and labels:
# Assay type in all cases: biochemical
# [1] = biological target: T1, SAPK2 (Xenopus homologue) (Xenopus laevis, UniProt P47812); assay: Substrate specificity: rate of phosphorylation by SAPK2 (Table 2); conditions: substrate 1 μM; SAPK 0.1 U/ml
# T1 construct: made in house; host or cells: E. coli
# Description: (§1) Protein kinase assays. SAPK3 was assayed routinely by the phosphorylation of MBP. […] After 20 min at 30° C.
# (§2) Table 2. Comparison of substrate specificities of SAPK2 and SAPK3. SAPK2 and SAPK3 were activated in vitro (FIG. 15) and phosphorylation of each protein studied at a SAPK concentration of 0.1 U/ml.
# human SAPK2b = biological target: T2, human SAPK2b (Homo sapiens, UniProt Q15759); assay: Substrate specificity: rate of phosphorylation by SAPK2b (Table 1); conditions: substrate 1 μm; SAPK 0.15 U/ml; means ± SEM of six determinations
# T2 construct: a number of SAPK2b clones, some of which were full-length; made in house; host or cells: E. coli BL21(DE3)
# Description: (§3) Experiments were carried out with the Xenopus homologue of SAPK2a, human SAPK2b and human SAPK4. The SAPKs were activated in vitro (FIG. 7) and phosphorylation of each protein was studied at a SAPK concentration of 0.15 U/ml. The results are presented as means±SEM of six determinations (two separate experiments). The data for rat SAPK3 are taken from Example 4 and Cuenda et al (1997).
# [2] = biological target: Xenopus homologue of SAPK2a (Xenopus laevis, UniProt P47812); assay: Substrate specificity: rate of phosphorylation by SAPK2a (Table 1); parameters: made in house; host or cells: E. coli; conditions: substrate 1 μm; SAPK 0.15 U/ml; means ± SEM of six determinations
# Description: as §3
# rat SAPK3 = biological target: T3, rat SAPK3 (Rattus norvegicus, UniProt Q63538); assay: Substrate specificity: rate of phosphorylation by SAPK3 (Tables 1 and 2)
# T3 construct: made in house; host or cells: E. coli BL21 (DE3)
# T3 sequence (Q63538 1-367): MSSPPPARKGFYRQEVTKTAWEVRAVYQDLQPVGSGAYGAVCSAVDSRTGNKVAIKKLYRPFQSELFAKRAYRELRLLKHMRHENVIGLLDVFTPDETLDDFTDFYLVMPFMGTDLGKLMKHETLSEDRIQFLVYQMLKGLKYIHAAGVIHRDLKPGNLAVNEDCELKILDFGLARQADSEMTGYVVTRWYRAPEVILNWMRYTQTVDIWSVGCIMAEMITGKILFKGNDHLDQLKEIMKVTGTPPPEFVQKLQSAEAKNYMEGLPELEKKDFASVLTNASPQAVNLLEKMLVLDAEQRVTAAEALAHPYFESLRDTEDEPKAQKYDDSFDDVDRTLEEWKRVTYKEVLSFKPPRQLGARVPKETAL
# Description: as §3, §1, §2
# SAPK4 = biological target: T4, SAPK4 (Homo sapiens, UniProt O15264); assay: Substrate specificity: rate of phosphorylation by SAPK4 (Table 1); parameters: made in house; host or cells: E. coli BL21(DE3); conditions: substrate 1 μm; SAPK 0.15 U/ml; means ± SEM of six determinations
# T4 sequence (O15264 1-365): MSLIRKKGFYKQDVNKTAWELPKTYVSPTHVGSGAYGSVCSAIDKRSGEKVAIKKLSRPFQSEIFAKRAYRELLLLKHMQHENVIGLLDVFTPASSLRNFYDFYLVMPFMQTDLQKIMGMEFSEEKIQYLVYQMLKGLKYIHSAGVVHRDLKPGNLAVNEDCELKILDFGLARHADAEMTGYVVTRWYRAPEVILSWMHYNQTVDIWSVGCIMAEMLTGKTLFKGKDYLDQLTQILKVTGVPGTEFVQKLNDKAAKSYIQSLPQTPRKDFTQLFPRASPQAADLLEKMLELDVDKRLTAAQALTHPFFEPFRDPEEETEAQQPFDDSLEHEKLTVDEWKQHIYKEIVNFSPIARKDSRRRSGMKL
# Description: as §3
# SAPK4 is assayed routinely by the phosphorylation of MBP. […] After washing and drying the papers (Alessi et al, 1995 Meth. Enzymol. 255, 279-290) ^32P radioactivity incorporated into MBP is measured.
# T1 sequence (P47812 whole entry): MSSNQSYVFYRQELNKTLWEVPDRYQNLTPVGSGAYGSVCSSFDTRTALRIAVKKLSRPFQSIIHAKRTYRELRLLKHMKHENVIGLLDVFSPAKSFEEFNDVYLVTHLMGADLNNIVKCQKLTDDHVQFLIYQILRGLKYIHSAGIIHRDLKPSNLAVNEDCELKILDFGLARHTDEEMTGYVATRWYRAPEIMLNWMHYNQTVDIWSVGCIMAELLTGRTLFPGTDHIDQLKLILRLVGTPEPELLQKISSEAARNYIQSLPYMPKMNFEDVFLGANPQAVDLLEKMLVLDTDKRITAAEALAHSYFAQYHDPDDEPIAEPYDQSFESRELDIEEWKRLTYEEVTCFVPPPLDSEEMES
# Xenopus homologue of SAPK2a, sequence (P47812 whole entry): as above
# T2 sequence (Q15759 whole entry): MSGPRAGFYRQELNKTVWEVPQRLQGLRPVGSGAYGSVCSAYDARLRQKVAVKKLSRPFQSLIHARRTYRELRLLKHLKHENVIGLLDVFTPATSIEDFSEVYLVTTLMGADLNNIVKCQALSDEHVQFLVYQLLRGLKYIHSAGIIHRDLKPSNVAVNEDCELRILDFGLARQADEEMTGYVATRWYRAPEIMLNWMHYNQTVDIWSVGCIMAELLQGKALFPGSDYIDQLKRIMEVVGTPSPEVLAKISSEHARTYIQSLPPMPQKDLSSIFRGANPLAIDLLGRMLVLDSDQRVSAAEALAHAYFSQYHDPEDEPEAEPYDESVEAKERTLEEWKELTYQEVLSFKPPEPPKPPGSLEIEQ
substance,measurement,setting,value
"Elk-1: transcription factor activation domain linked to GST, kinase substrate","Rate of phosphorylation relative to MBP, SAPK2",[1],122 ± 22
same,"Rates of phosphorylation relative to MBP, SAPK2b",human SAPK2b,136 ± 12%
same,"Rates of phosphorylation relative to MBP, SAPK2a",[2],90 ± 10%
same,"Rate of phosphorylation relative to MBP, SAPK3","rat SAPK3; substrate 1 μM, SAPK 0.1 U/ml",181 ± 30
same,"Rates of phosphorylation relative to MBP, SAPK3","rat SAPK3; substrate 1 μm, rat SAPK3 data taken from Example 4 and Cuenda et al (1997)",181 ± 30%
same,"Rates of phosphorylation relative to MBP, SAPK4",SAPK4,175 ± 25%
